The values that follow come from patent US20210047426A1 (MacroGenics, published 2021).

The target of assay [1] is T1, Human CD123 on the surface of leukemic cell lines (human, UniProt P26951 19-378). Put plainly: cell-based or functional assay.
The target of assay [2] is T2, Human CD123-His (soluble human IL3R-alpha) (human, UniProt P26951 19-305, limits assumed).
T2 construct: also called interleukin 3 receptor alpha chain; not shown: His tag
T2 sequence (looked up): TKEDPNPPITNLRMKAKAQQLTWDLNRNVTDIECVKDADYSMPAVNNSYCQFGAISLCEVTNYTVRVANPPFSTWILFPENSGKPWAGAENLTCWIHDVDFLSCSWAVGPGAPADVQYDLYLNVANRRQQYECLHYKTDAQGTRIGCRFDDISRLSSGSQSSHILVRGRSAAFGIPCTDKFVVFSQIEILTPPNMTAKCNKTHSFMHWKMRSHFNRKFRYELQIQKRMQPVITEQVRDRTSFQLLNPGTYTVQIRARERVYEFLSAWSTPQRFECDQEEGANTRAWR
Put plainly: BIACORE surface plasmon resonance, purified human CD123 captured and immobilized, 1:1 binding fit. The text has this: (§1) BIACORE™ analyses measure the dissociation off-rate, kd. The binding affinity (KD) between an antibody and its target is a function of the kinetic constants for association (on rate, ka) and dissociation (off-rate, kd) according to the formula: KD=[kd]/[ka]. The BIACORE™ analysis uses surface plasmon resonance to directly measure these kinetic parameters. Recombinant human or cynomolgus monkey CD3 was directly immobilized to a support. Purified human or cynomolgus monkey CD123 was captured and immolbilized to a support. The time course of dissociation was measured and a […] of the data conducted. Binding constants and affinity were obtained using a 1:1 binding fit.

In assay [3] the target is T2, Human CD123-His (soluble human …). Kind of assay: SPR (BIAcore 3000), antigen immobilized on the chip, DART-A injected, 1:1 Langmuir fit, mean of 3 experiments. As for the experimental part: (§2) Briefly, the carboxyl groups on the CMS sensor chip were activated with an injection of 0.2M N-ethyl-N-([…]) carbodiimide and 0.05M N-hydroxy-succinimide. Soluble CD3 or CD123 (1 μg/ml) was injected over the activated CMS surface in 10 mM sodium-acetate, pH 5.0, at flow rate 5 μL/min, followed by 1 M ethanolamine for deactivation. Binding experiments were performed in 10 mM HEPES, pH 7.4, 150 mM NaCl, 3 mM EDTA and 0.005% P20 surfactant. Regeneration of the immobilized receptor surfaces was performed by pulse injection of 10 mM glycine, pH 1.5. KD values were determined by a global fit of binding curves to the Langmuir 1:1 binding model (BIAevaluation software v4.1).
(§3) The data in Table 7 are averages of 3 independent experiments each performed in duplicates.
On the technique in general: SPR reads the build-up and loss of mass on a sensor chip optically.

Assay [4] addresses T3, Cynomolgus CD123-His (soluble cynomolgus IL3R-alpha) (cynomolgus monkey).
T3 construct: also called cynomolgus monkey CD123; monkey CD123
Described as above. On the procedure: as §2, §3

Assay [5] deals with T2, Human CD123-His (soluble human …). Put plainly: bifunctional ELISA, plate coated with human CD123, detection with human CD3-biotin and streptavidin-HRP. As for the experimental part:
(§4) A MaxiSorp ELISA plate (Nunc) coated overnight with the soluble human or cynomolgus IL3R-alpha (0.5 μg/mL) in bicarbonate buffer was blocked with 0.5% BSA; 0.1% Tween-20 in PBS (PBST/BSA) for 30 minutes at room temperature. […] HRP activity was detected by conversion of tetramethylbenzidine (BioFX) as substrate for 5 min; the reaction was terminated with […] of 1% […] and the absorbance read at 450 nm.
In general terms: In an ELISA, binding on a coated surface is turned into a signal by an enzyme label.

The target of assay [6] is T3, Cynomolgus CD123-His (soluble …). Kind of assay: BIACORE surface plasmon resonance, purified cynomolgus monkey CD123 captured and immobilized, 1:1 binding fit.
Description: as §1

For assay [7] the target is unchanged. Kind of assay: bifunctional ELISA, plate coated with cynomolgus monkey CD123, detection with human CD3-biotin and streptavidin-HRP. As for the experimental part: as §4
Assay [8] has as its target T1, Human CD123 on the surface of leukemic …. Put plainly: FACS on Molm-13 cells, detection with a monoclonal antibody to the E-coil/K-coil region.

Broadly, the Kd is the constant that tells how readily two partners part at equilibrium. As usually defined, the koff is the rate constant with which the complex falls apart. A word on the kon: it is the rate constant with which the complex forms. Usually EC50 (read off the curve) stands for the concentration at which the effect is half-maximal.

B1: Sequence-Optimized CD123 × CD3 Bi-Specific Diabody Having an Albumin-Binding Domain (DART-A w/ABD) (bispecific antibody)
chain 1: QAVVTQEPSLTVSPGGTVTLTCRSSTGAVTTSNYANWVQQKPGQAPRGLIGGTNKRAPWTPARFSGSLLGGKAALTITGAQAEDEADYYCALWYSNLWVFGGGTKLTVLGGGGSGGGGEVQLVQSGAELKKPGASVKVSCKASGYTFTDYYMKWVRQAPGQGLEWIGDIIPSNGATFYNQKFKGRVTITVDKSTSTAYMELSSLRSEDTAVYYCARSHLLRASWFAYWGQGTLVTVSSGGCGGGEVAALEKEVAALEKEVAALEKEVAALEKGGGSLAEAKVLANRELDKYGVSDYYKNLIDNAKSAEGVKALIDEILAALP
chain 2: DFVMTQSPDSLAVSLGERVTMSCKSSQSLLNSGNQKNYLTWYQQKPGQPPKLLIYWASTRESGVPDRFSGSGSGTDFTLTISSLQAEDVAVYYCQNDYSYPYTFGQGTKLEIKGGGSGGGGEVQLVESGGGLVQPGGSLRLSCAASGFTFSTYAMNWVRQAPGKGLEWVGRIRSKYNNYATYYADSVKDRFTISRDDSKNSLYLQMNSLKTEDTAVYYCVRHGNFGNSYVSWFAYWGQGTLVTVSSGGCGGGKVAALKEKVAALKEKVAALKEKVAALKE
Regarding B1, in assay [1], the “EC50 of redirected killing of Kasumi-3 cells (LDH release, E:T = 10:1)” value stood at 0.01 ng/mL; the “EC50 of redirected killing of Molm13 cells (LDH release, E:T = 10:1)” value worked out at 0.18 ng/mL; the “EC50 of redirected killing of RS4-11 cells (LDH release, E:T = 10:1)” value was 0.5 ng/mL; the “EC50 of redirected killing of TF-1 cells (LDH release, E:T = 10:1)” value amounted to 0.46 ng/mL. The “EC50 of redirected killing of THP-1 cells (LDH release, E:T = 10:1)” value in assay [1] was 0.24 ng/mL.

B2: Sequence-Optimized CD123 × CD3 Bi-Specific Diabody (DART-A) (bispecific antibody)
chain 1: QAVVTQEPSLTVSPGGTVTLTCRSSTGAVTTSNYANWVQQKPGQAPRGLIGGTNKRAPWTPARFSGSLLGGKAALTITGAQAEDEADYYCALWYSNLWVFGGGTKLTVLGGGGSGGGGEVQLVQSGAELKKPGASVKVSCKASGYTFTDYYMKWVRQAPGQGLEWIGDIIPSNGATFYNQKFKGRVTITVDKSTSTAYMELSSLRSEDTAVYYCARSHLLRASWFAYWGQGTLVTVSSGGCGGGEVAALEKEVAALEKEVAALEKEVAALEK
chain 2: DFVMTQSPDSLAVSLGERVTMSCKSSQSLLNSGNQKNYLTWYQQKPGQPPKLLIYWASTRESGVPDRFSGSGSGTDFTLTISSLQAEDVAVYYCQNDYSYPYTFGQGTKLEIKGGGSGGGGEVQLVESGGGLVQPGGSLRLSCAASGFTFSTYAMNWVRQAPGKGLEWVGRIRSKYNNYATYYADSVKDRFTISRDDSKNSLYLQMNSLKTEDTAVYYCVRHGNFGNSYVSWFAYWGQGTLVTVSSGGCGGGKVAALKEKVAALKEKVAALKEKVAALKE
notes: Two-chain heterodimer, the chains disulfide-bonded to one another; one CD123 site and one CD3 site; 58.9 kDa
On to B2, for which the Kd in assay [2] was 0.14 nM; in assay [3], 0.13 nM; in assay [4], 0.27 nM; in assay [6], 0.27 nM. In addition, the values for the koff in assay [3] and in assay [4] were 0.00019 s⁻¹ and 0.0004 s⁻¹, respectively. The association rate constant (kon) in assay [3] amounted to 1.6e+06 M⁻¹ s⁻¹; in assay [4], 1.5e+06 M⁻¹ s⁻¹. Besides, the “EC50 (read off the curve)” value in assay [5] was about 0.01 µg/mL; in assay [7], about 0.04 µg/mL.

B3: Control Bi-Specific Diabody (Control DART) (bispecific antibody)
chain 1: DVVMTQTPFSLPVSLGDQASISCRSSQSLVHSNGNTYLRWYLQKPGQSPKVLIYKVSNRFSGVPDRFSGSGSGTDFTLKISRVEAEDLGVYFCSQSTHVPWTFGGGTKLEIKGGGSGGGGEVQLVESGGGLVQPGGSLRLSCAASGFTFNTYAMNWVRQAPGKGLEWVARIRSKYNNYATYYADSVKDRFTISRDDSKNSLYLQMNSLKTEDTAVYYCVRHGNFGNSYVSWFAYWGQGTLVTVSSGGCGGGEVAALEKEVAALEKEVAALEKEVAALEK
chain 2: QAVVTQEPSLTVSPGGTVTLTCRSSTGAVTTSNYANWVQQKPGQAPRGLIGGTNKRAPWTPARFSGSLLGGKAALTITGAQAEDEADYYCALWYSNLWVFGGGTKLTVLGGGGSGGGGEVKLDETGGGLVQPGRPMKLSCVASGFTFSDYWMNWVRQSPEKGLEWVAQIRNKPYNYETYYSDSVKGRFTISRDDSKSSVYLQMNNLRVEDMGIYYCTGSYYGMDYWGQGTSVTVSSGGCGGGKVAALKEKVAALKEKVAALKEKVAALKE
notes: Bi-specific for fluorescein (FITC) and CD3; has no CD123 arm; also called FITC × CD3 control diabody
As to B3, the binding result in assay [8] is given as “no binding”; in assay [5], “no binding (tested: 1 ug/mL)”.
